From US7541450B2, “Ligand-dependent protein splicing” (President and Fellows of Harvard College, priority 2004, dated 2009)
Entries after “also recorded” stand apart in the source; their conditions may differ.

Test system: aminoglycoside phosphorylase (KanR)
Assay type: cell-based, S. cerevisiae

B1: intein(N)-ER-intein(C): starting RecA intein with the estrogen receptor ligand binding domain in place of the endonuclease domain, SEQ ID NO: 1 (protein)
chain: CLAEGTRIFDPVTGTTHRIEDVVDGRKPIHVVAAAKDGTLHARPVVSWFDQGTRDVIGLRIAGGAIVWATPDHKVLTEYGWRAAGELRKGDRVAGPGGSGNSLALSLTADQMVSALLDAEPPILYSEYDPTRPFSEASMMGLLTNLADRELVHMINWAKRVPGFVDLTLHDQVHLLECAWLEILMIGLVWRSMEHPGKLLFAPNLLLDRNQGKCVEGMVEIFDMLLATSSRFRMMNLQGEEFVCLKSIILLNSGVYTFLSSTLKSLEEKDHIHRVLDKITDTLIHLMAKAGLTLQQQHQRLAQLLLILSHIRHMSNKRMEHLYSMKCKNVVPLYDLLLEMLDAHRLHAGGSGASRVQAFADALDDKFLHDMLAEELRYSVIREVLPTRRARTFDLEVEELHTLVAEGVVVHN
modifications: M. tuberculosis RecA intein with the estrogen ligand binding domain inserted in place of the RecA endonuclease domain with six amino acid linkers in between.
- geneticin resistance (growth) in the KanR context: confers no geneticin resistance in the presence or absence of 4-HT; also recorded: unable to grown; also recorded: fails to confer geneticin resistance
